Experimental data as given in PMC3364216, “The RuvA Homologues from Mycoplasma genitalium and Mycoplasma pneumoniae Exhibit Unique Functional Characteristics”.

Biological target: RuvAMge;RecUMge (Mycoplasma genitalium G37 (ATCC …, UniProt Q49424;Q49422 1-205;1-166, |))
Assay: EMSA; 0.5 uM RecUMge preincubated, then RuvAMge; all RecU-HJ complexes shifted at 4 uM; 20 mM Tris-HCl pH 7.5, 1 mM DTT, 1 mM EDTA, 12.3 nM DNA, 10 ul, on ice 10 min; 8% PAGE in 0.5x TBE; +/- 10 mM Mg2+

B1: HJ 1.1 (structured_DNA)
DNA 1: GCGACGTGATCACCAGATGATTGCTAGGCATGCTTTCCGCAAGAGAAGC
DNA 2: GGCTTCTCTTGCGGAAAGCATGCCTAGCAATCCTGTCAGCTGCATGGAAC
DNA 3: GGTTCCATGCAGCTGACAGGATTGCTAGGCTCAAGGCGAACTGCTAACGG
DNA 4: ACCGTTAGCAGTTCGCCTTGAGCCTAGCAATCATCTGGTGATCACGTCGC
binding result: binds
